Measured values reported in patent US20220098328A1, “ANTIBODIES TO M(H)DM2/4 AND THEIR USE IN DIAGNOSING AND TREATING CANCER” (NomoCan Pharmaceuticals LLC, priority 2017, published 2022).

Legend:
[1] = test system: plasma membrane M(H)DM2/4; assay: Plasma membrane M(H)DM2/4 after treatment of cells with chemotherapeutic agents (in vitro); type: cell-based; conditions: data not shown
[2] = test system: human, murine, rabbit protein; design: key: H—binds to human protein; M—binds to murine protein; R—binds to rabbit protein; conditions: cited from earlier work
[3] = test system: human pancreatic cancer MIA PaCa-2 cells; assay: Cell-ELISA on intact cells; type: cell-based
Experimental: (§1) Cell-ELISA Methodology: 8,000-10,000 cells/well of a 96-well microplate were grown overnight. The next day, unbound cells were washed off with sterile 1×PBS. The cells in each well were fixed with freshly prepared 4% buffered paraformaldehyde (pH 7.2) for 1 hour followed by 3 washes with 1×PBS. The wells were then blocked with 5% BSA in PBS (100 μl/well) for 2 hours at room temperature. Microplate wells were then washed 5 times with 300 μl of ice cold 1×PBS. MAbs NMC-103, NMC-204 or NMC-303 at 1 μg/mL in 1% BSA/PBS were then incubated with various cancer or normal untransformed cells for 2 hours at room temperature. Wells were then washed with 300 μl of ice-cold 1×PBS for 5 times and corresponding secondary antibody HRP-GaM F(ab′)2 diluted 1:2500 or 1:5000 in PBS with 1% BSA were added at 100 μl/well for 1 hour at room temperature followed by washing 5 times with 300 μl of ice-cold 1×PBS. TMB Substrate Solution (1-Step™ Ultra TMB-ELISA, ThermoFisher, Cat. No. 34028) was then added at 50 μL to each microplate well and incubated at room temperature for 30 minutes. The reaction was stopped by addition of 50 μL of stop solution (ThermoFisher, Cat. No. SS04) to each well and absorbance of each well was measured at OD450 nm. The absorbance value of each experimental well was corrected for the absorbance value obtained from wells treated with isotype-identical mAbs included in each experiment. The results are thus expressed as “relative binding”.
(§2) In a 96-well microplate, 15,000 cells/well were cultured overnight. The next day, unbound cells were washed off with sterile 1×PBS. The cells in each well were fixed with freshly prepared 4% buffered paraformaldehyde (pH 7.2) for 1 hour, followed by 3 washes with 1×PBS. The wells were then blocked with 5% BSA in PBS (100 μl/well) for 2 hours at room temperature. Microplate wells were then washed 5 times with 300 μl of ice cold 1×PBS. Monoclonal antibodies NMC-H103 (VH4/VK3) or NMC-C303 at 5 μg/mL in 1% BSA/PBS were then incubated with various cancer cells for 2 hours at room temperature. Wells were then washed with 300 μl of ice-cold 1×PBS for 5 times and corresponding secondary antibody HRP-GaH F(ab′)2 diluted 1:2000 or 1:4000 in PBS with 1% BSA were added at 100 μl/well for 1 hour at room temperature followed by washing 5 times with 300 μl of ice-cold 1×PBS. TMB Substrate Solution (1-Step™ Ultra TMB-ELISA, ThermoFisher, Cat. No. 34028) was then added at 50 μL to each microplate well and incubated at room temperature for 30 minutes. The reaction was stopped by addition of 50 μL of stop solution (ThermoFisher, Cat. No. SS04) to each well and absorbance of each well was measured at OD450 nm. The absorbance value of each experimental well was corrected for the absorbance value obtained from wells treated with isotype-identical mAbs included in each experiment.

[4] = biological target: E-Cadherin on intact mouse LL/2 cancer cells (mouse) (UniProt P09803); assay: cell-based ELISA on intact LL/2 cells, 5 µg/mL, OD450
[5] = test system: human uveal melanoma 92.1 cells; assay: Cell-ELISA on intact cells; type: cell-based; conditions: mAb 1 μg/mL, fixed, non-permeabilized cells
Experimental: as §1

[6] = test system: human triple negative breast cancer HCC1806 cells; assay: Cell-ELISA on intact cells; type: cell-based; conditions: mAb 1 μg/mL, fixed, non-permeabilized cells
Experimental: as §1

[7] = test system: normal human peripheral blood mononuclear cells (PBMCs); assay: Cell-ELISA on intact cells; type: cell-based; conditions: freshly isolated normal human PBMCs
Experimental: as §1

[8] = biological target: NMC-P3 peptide (SEQ ID NO:3), amino acids 475-491 of HDM2 (Homo sapiens, UniProt Q00987); assay: Peptide-ELISA; type: binding; conditions: 5 μg/ml peptide on plate, OD 450 nm
Experimental: Peptide-ELISA Methodology: 5 μg/ml of NMC-P1, NMC-P2 or NMC-P3 peptide antigen was dried onto a 96-well ELISA plate overnight. Plates were then blocked with 5% BSA in 1× phosphate-buffered saline (PBS) (100 μl/well) for 2 hours at room temperature. Microplate wells were then washed 5 times with 300 μl of ice cold 1×PBS. Appropriate dilutions of monoclonal antibodies NMC-103, NMC-204 or NMC-303 in 1% bovine serum albumin (BSA) in PBS solution were then incubated with their corresponding peptides (NMC-P1, NMC-P2 or NMC-P3, respectively) at room temperature. After 2 hours, wells were washed 5 times with 300 μl ice-cold PBS/well and 100 μl secondary antibody (HRP-labeled Goat anti-Mouse F(ab′)2 H&L cross-adsorbed secondary antibody (HRP-GaM F(ab′)2), ThermoFisher, Cat. No. A24524) diluted 1:2500 to 1:5000 in PBS-1% BSA solution were added and the incubation continued at room temperature. After 1 hour, the wells were washed again 5 times with 200 μl of ice-cold PBS and 50 μL of the TMB Substrate Solution (1-Step™ Ultra TMB-ELISA, ThermoFisher, Cat. No. 34028) were added to each well and color was allowed to develop for 30 minutes at room temperature. The reaction was stopped by addition of 50 μL of stop solution (ThermoFisher, Cat. No. SS04) to each well and absorbance of each well was read immediately for optical density (OD) at 450 nm.

[9] = test system: human breast cancer MCF-7 cells; assay: Cell-ELISA on intact cells; type: cell-based; conditions: MCF-7; mAb 1 μg/mL; fixed, non-permeabilized cells
Experimental: as §1, §2

[10] = test system: primary patient-derived human ovarian cancer OVCA4 cells; assay: Cell-ELISA on intact cells; type: cell-based; conditions: OVCA4; mAb 1 μg/mL; fixed, non-permeabilized cells
Experimental: as §1, §2

[11] = test system: mouse Lewis Lung LL/2 cells; assay: Cell-ELISA on intact cells; type: cell-based; conditions: LL/2; mAb 1 μg/mL; fixed, non-permeabilized cells
Experimental: as §1, §2

[12] = test system: human melanoma A2058 cells; assay: Cell-ELISA on intact cells; type: cell-based; conditions: A2058; mAb 1 μg/mL; fixed, non-permeabilized cells
Experimental: as §1, §2

[13] = test system: mouse pancreatic Panc02 cells; assay: Cell-ELISA on intact cells; type: cell-based; conditions: Panc02; mAb 1 μg/mL; fixed, non-permeabilized cells
Experimental: as §1, §2

[14] = test system: human ovarian cancer OVCAR-3 cells; assay: Cell-ELISA on intact cells; type: cell-based; conditions: OVCAR-3 (resistant to adriamycin, melphalan, cisplatin); mAb 1 μg/mL; fixed, non-permeabilized cells
Experimental: as §1, §2

[15] = test system: mouse colon cancer MC-38 cells; assay: Cell-ELISA on intact cells; type: cell-based; conditions: MC-38; mAb 1 μg/mL; fixed, non-permeabilized cells
Experimental: as §1, §2

[16] = biological target: T1, recombinant HDM2 protein (GST tagged) (Homo sapiens, UniProt Q00987); assay: Western blot (immunoblot); type: binding; conditions: 1 μg/well protein, antibody 1 μg/ml; band at approximately 83 kD
T1 construct: NMC-103, NMC-204 and NMC-303 reacted with the recombinant full-length HDM2 protein; purchased Abcam ab188727
Experimental: Western Blot: As for immunoblots, 1 μg/well of recombinant HDM2 protein (GST tagged, Abcam, Cat. No. ab188727) was separated on 8-16% sodium dodecyl sulfate (SDS) polyacrylamide gel and proteins were then transferred to polyvinylidene difluoride (PVDF) membrane. The membrane was blocked with 5% milk followed by incubation with monoclonal antibody NMC-103, NMC-204 or NMC-303 at 1 μg/ml in 1% milk in PBS for 2 hours. The membrane was then washed ×3 times (10 minutes each) and incubated for 1 hour with corresponding HRP-conjugated secondary antibody (Goat anti-Mouse IgG (H&L), F(ab′)2 Frag Cross-adsorbed HRP (HRP-GaM F(ab′)2), ThermoFisher, Cat. No. A24524) diluted 1:5000 in 1% BSA-PBS. The membrane was then washed ×3 times and incubated with Pierce ECL Plus Western Blotting Substrate (ThermoFisher, Cat. No. #32132) for 10 min before developing on a LICOR Scanner.

T1 sequence (Q00987 whole entry): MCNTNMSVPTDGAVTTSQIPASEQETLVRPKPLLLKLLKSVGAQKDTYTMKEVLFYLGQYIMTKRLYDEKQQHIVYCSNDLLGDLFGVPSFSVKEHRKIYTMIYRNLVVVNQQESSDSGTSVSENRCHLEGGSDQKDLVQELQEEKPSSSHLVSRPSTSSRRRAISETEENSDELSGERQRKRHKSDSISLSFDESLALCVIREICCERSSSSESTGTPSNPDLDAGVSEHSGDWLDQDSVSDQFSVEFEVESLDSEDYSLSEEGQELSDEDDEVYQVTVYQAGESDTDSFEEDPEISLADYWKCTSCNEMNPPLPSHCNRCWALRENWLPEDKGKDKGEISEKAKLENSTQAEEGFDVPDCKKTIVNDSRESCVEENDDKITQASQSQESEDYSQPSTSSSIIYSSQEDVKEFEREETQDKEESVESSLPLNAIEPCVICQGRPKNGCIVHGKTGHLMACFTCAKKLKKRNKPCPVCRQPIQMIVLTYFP
Sequence of E-Cadherin on intact mouse LL/2 cancer cells (mouse) (P09803 157-884): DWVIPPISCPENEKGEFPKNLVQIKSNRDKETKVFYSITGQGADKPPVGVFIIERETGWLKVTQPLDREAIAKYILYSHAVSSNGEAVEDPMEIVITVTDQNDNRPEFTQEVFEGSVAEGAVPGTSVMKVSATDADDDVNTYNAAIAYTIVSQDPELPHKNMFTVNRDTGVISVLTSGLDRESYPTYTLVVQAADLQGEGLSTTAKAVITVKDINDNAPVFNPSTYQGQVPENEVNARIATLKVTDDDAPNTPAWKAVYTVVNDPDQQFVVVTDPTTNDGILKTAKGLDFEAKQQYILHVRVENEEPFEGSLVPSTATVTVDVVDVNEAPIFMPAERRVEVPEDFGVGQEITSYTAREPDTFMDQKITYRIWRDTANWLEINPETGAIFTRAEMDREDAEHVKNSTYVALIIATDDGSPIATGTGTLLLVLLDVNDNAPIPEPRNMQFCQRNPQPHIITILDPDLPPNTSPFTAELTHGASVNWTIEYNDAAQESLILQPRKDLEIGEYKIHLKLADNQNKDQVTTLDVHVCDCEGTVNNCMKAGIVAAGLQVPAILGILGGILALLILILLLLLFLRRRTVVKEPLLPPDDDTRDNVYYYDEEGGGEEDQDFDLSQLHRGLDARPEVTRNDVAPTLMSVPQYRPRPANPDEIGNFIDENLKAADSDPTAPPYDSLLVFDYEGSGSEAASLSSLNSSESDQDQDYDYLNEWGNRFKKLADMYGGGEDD

**Q.** Which “plasma membrane M(H)DM2/4 level of treated cells” value [1] does the source give for `Nc1ccn([C@@H]2O[C@H](CO)[C@@H](O)C2(F)F)c(=O)n1` [Gemcitabine] here?
**A.** increase in plasma membrane M(H)DM2/4

**Q.** What does the source list for Cytochrome C [reference compound]?
**A.** Species Reactivity [2]: H; binding to intact, EDTA-released MiaPaCa-2 cells, cell-ELISA ([3]; EDTA 10 mmols, pH 7.2, 5 min, 37° C.): only minimal binding

**Q.** Which average OD reading [4] does the source give for E-cadherin G10 (SC-8426) (antibody) here?
**A.** 1.49 OD

**Q.** For `CC(=O)O[C@H]1C(=O)[C@@]2(C)[C@H]([C@H](OC(=O)c3ccccc3)[C@]3(O)C[C@H](OC(=O)[C@H](O)[C@@H](NC(=O)c4ccccc4)c4ccccc4)C(C)=C1C3(C)C)[C@]1(OC(C)=O)CO[C@@H]1C[C@@H]2O` [Paclitaxel], which “plasma membrane M(H)DM2/4 level of treated cells” value [1] is on record?
**A.** increase in plasma membrane M(H)DM2/4

B1: NMC-303: mouse monoclonal antibody of the IgM isotype that binds to NMC-P3 (SEQ ID NO:3); VH SEQ ID NO:40, VL SEQ ID NO:41 (antibody, V domains shown)
VH: QVQLQQPGAELVKPGASVKLSCKASGYTFTSYYMYWVKQRPGQGLEWIGGINPRNGGTNFNEKFKNKATLTADKSSTTAYMQLSSLTSEDSAVYYCTRSGYYAMDYWGQGTSVTVSS
VL: DIQMTQTTSSLSASLGDRVTISCRASQDISNFLNWYQQKPDGTVKLLIYYTSRLHSGVPSRFSGSGSGTDYSLTISNLEQEDIATYFCQQGNTLPRTFGGGTKLEIK
modifications: mAb NMC-303 Heavy Chain Variable Region; mAb NMC-303 Light Chain Variable Region
**Q.** With B1 as the molecule, how does the “relative binding (reactivity) to intact cells, cell-ELISA” value (“relative binding (reactivity)” for short) [5] read?
**A.** reactivity

**Q.** And the “relative binding (reactivity)” value [6]?
**A.** reactivity

**Q.** What about the “binding to intact normal cells, cell-ELISA” value [7] of the same molecule?
**A.** virtually no binding

**Q.** And the “binding to NMC-P3 peptide” value [8]?
**A.** bound

**Q.** And the “relative binding (reactivity)” value [9]?
**A.** reactivity

**Q.** What about the “relative binding (reactivity)” value [10] of the same molecule?
**A.** reactivity

**Q.** And the “relative binding (reactivity)” value ([3]; MIA PaCa-2, mAb 1 μg/mL, fixed, non-permeabilized cells)?
**A.** reactivity

**Q.** And the “binding to intact MIA PaCa-2 cells when competed with NMC-P3 peptide” value ([3]; cell-ELISA peptide competition)?
**A.** competed

**Q.** And the “relative binding (reactivity)” value [11]?
**A.** reactivity

**Q.** What about the “relative binding (reactivity)” value [12] of the same molecule?
**A.** reactivity

**Q.** And the “relative binding (reactivity)” value [13]?
**A.** reactivity

**Q.** And the “relative binding (reactivity)” value [14]?
**A.** reactivity

**Q.** And the “relative binding (reactivity)” value [15]?
**A.** reactivity

**Q.** What about the “reactivity with recombinant full-length HDM2-GST protein (immunoblot)” value [16] of the same molecule?
**A.** reacted
